# Measured values as given in PMC5679641 (PLoS Pathogens, 2017).
# Where “and” joins values, the source holds several entries; their conditions need not be identical. Equal values may be shown once.
# B1: ABIN2, Nluc- or YFP-tagged (BRET) (natural protein, human, UniProt Q8NFZ5-1 1-429, looked up)
# chain: MSRDPGSGGWEEAPRAAAALCTLYHEAGQRLRRLQDQLAARDALIARLRARLAALEGDAAPSLVDALLEQVARFREQLRRQEGGAAEAQMRQEIERLTERLEEKEREMQQLLSQPQHEREKEVVLLRRSMAEGERARAASDVLCRSLANETHQLRRTLTATAHMCQHLAKCLDERQHAQRNVGERSPDQSEHTDGHTSVQSVIEKLQEENRLLKQKVTHVEDLNAKWQRYNASRDEYVRGLHAQLRGLQIPHEPELMRKEISRLNRQLEEKINDCAEVKQELAASRTARDAALERVQMLEQQILAYKDDFMSERADRERAQSRIQELEEKVASLLHQVSWRQDSREPDAGRIHAGSKTAKYLAADALELMVPGGWRPGTGSQQPEPPAEGGHPGAAQRGQGDLQCPHCLQCFSDEQGEELLRHVAECCQ
# notes: also called TNIP2
# B2: ABIN2, Glu1- or Glu2-tagged (PCA) (natural protein, human, UniProt Q8NFZ5-1 1-429, looked up)
# chain: B1 chain
# B3: MSAD, YFP-tagged (BRET) (natural protein)
# chain: MNLLRKIVKNRRDEDTQKSSPASAPLDDDDLWLPPPEYVPLKELTGKKNMRNFCINGRVKVCSPNGYSFRILRHILKSFDEIYSGNHRMIGLVKVVIGLALSGSPVPEGLNWVYKLRRTFIFQWADSRGPLEGEELEYSQEITWDDDTEFVGLQIRVIAKQCHIQGRVWCINMNPRACQLWSDMSLQTQRSEEDKDSSLLLE
# Columns and labels:
# [1] = biological target: ABIN2, Nluc- or YFP-tagged (BRET) (human) (UniProt Q8NFZ5); assay: FRET or BRET
# [2] = biological target: RelAp43, Nluc- or YFP-tagged (BRET); assay: FRET or BRET
# RelAp43, Nluc- or YFP-tagged (BRET), sequence (Q04206 whole entry): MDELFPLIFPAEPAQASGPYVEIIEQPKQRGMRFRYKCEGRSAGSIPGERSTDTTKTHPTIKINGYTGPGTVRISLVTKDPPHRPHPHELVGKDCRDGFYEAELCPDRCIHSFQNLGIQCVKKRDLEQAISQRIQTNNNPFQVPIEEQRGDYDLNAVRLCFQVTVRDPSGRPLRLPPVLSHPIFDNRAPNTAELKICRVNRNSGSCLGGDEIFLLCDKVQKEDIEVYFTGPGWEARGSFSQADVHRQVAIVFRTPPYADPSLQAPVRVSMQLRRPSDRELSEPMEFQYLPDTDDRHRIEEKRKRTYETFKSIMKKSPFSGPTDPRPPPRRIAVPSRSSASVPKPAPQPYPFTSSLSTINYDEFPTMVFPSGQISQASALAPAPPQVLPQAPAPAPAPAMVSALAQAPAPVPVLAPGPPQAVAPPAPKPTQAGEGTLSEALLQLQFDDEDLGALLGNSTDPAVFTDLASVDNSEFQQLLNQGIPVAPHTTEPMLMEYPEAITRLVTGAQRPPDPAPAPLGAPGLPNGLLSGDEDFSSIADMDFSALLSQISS
# [3] = biological target: TPL2, Nluc- or YFP-tagged (BRET) (human) (UniProt P41279); assay: FRET or BRET
# TPL2, Nluc- or YFP-tagged (BRET) (human), sequence (P41279 whole entry): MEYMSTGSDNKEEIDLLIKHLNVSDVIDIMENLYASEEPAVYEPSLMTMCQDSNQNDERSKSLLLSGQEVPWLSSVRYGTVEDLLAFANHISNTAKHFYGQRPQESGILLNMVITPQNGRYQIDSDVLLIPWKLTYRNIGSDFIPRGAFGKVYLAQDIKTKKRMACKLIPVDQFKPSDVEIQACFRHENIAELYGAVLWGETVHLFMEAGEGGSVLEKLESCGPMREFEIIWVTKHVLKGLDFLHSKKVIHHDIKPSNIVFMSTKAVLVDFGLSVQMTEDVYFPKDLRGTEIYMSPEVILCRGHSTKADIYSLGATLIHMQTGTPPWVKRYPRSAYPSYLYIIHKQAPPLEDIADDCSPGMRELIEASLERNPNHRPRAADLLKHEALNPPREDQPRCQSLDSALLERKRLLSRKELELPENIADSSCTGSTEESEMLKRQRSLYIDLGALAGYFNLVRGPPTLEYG
# [4] = biological target: T1, TPL2, Nluc- or YFP-tagged (BRET) (human, UniProt P41279-1 1-467); assay: FRET or BRET; conditions: partners not purified
# T1 construct: also called MAP3K8
# T1 sequence (P41279 whole entry): as above
# [5] = biological target: T2, p105, Nluc- or YFP-tagged (BRET) (UniProt P19838 1-968); assay: FRET or BRET; conditions: partners not purified
# T2 construct: also called NFκB1(p105/p50)
# T2 sequence (looked up): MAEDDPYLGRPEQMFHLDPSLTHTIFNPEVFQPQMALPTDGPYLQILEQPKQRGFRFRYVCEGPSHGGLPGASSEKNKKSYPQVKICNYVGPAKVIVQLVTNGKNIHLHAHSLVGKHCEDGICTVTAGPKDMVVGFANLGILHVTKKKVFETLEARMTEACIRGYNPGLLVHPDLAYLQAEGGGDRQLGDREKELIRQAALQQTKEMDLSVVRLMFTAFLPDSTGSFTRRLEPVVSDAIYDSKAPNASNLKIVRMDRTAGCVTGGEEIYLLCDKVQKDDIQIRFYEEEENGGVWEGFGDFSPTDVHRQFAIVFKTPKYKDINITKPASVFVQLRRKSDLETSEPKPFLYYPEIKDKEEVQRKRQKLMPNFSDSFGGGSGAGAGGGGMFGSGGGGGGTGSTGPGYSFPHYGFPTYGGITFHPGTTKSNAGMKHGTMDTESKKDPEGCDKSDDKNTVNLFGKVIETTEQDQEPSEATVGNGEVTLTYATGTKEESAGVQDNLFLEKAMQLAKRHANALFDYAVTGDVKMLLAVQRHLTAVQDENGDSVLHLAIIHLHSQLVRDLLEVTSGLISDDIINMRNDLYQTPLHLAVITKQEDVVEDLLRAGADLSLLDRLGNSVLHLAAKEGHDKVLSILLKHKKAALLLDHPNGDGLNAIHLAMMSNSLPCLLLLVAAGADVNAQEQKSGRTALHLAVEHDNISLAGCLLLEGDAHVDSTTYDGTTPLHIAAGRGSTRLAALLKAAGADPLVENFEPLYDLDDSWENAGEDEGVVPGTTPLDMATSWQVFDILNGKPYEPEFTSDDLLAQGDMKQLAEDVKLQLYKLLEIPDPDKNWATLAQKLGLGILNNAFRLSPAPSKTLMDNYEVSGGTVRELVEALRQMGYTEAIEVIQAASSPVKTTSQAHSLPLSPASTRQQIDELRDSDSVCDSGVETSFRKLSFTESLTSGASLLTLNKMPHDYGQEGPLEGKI
# [6] = biological target: TPL2, Glu1- or Glu2-tagged (PCA) (human, UniProt P41279-1 1-467); assay: split reporter (BiFC, NanoBiT); conditions: partners not purified
# TPL2, Glu1- or Glu2-tagged (PCA), sequence (P41279 whole entry): as the sequence (P41279 whole entry) above
molecule,measurement,setting,value
"MSAD, YFP-tagged (BRET) (from UniProt P16287 1-202) (natural protein)",netBRET,[1],0.022 and 0.063
"MTha, YFP-tagged (BRET) (natural protein)",netBRET,[2],0.022 to 0.109
same,netBRET,[3],> 0.05
"p50, Nluc- or YFP-tagged (BRET) (domain or fragment)",netBRET,[2],> 0.05
"p105, Nluc- or YFP-tagged (BRET) (from UniProt P19838 1-968) (natural protein)",netBRET,[2],> 0.05
B1,netBRET,[4],0.093
same,netBRET,[5],< 0.05
B2,other,[6],0.86
B3,netBRET,[4],> 0.05
